Measured values reported in patent publication US7803351B2, “Blood brain barrier permeation peptides” (priority 2004, dated 2010).
Where two headings read alike, the source gives them in different places. Numbered stars: 1 amine (or outer) side, 2 acyl side, 3 side chain; on linkers, the order of the positions; unused ones are H or OH. Square brackets hold non-standard residues; d marks the D form. Ends that are not written are not given here. * marks the point of attachment. Fluorescein(5-Mal) = O=C1OC2(c3ccc(O)cc3Oc3cc(O)ccc32)c2ccc(N3C(=O)CC(*)C3=O)cc21; εLys = N[C@@H](CCCCN[*:1])C(=O)[*:2]

How the values were obtained:
[1] = tested on: amyloid plaques in brain sections; experiment: Staining of brain tissue sections of APPsw+/− and WT mice; set-up: species or system mouse; conditions: 40 μm sections
Text: Staining experiments with cross sections of brain tissue from normal (WT) and APPsw+/− mice are suitable for evaluating target specificity of the peptide conjugate. For example, a candidate peptide conjugate is labeled with a fluorescent marker. A suitable marker is fluorescein-5-maleimide (FM; 3-equiv) in DMF, which labels the C-terminal thiol of the peptide. After a suitable reaction of peptide and FM at room temperature in the dark, the fluorescent-labeled peptide is purified, for example column-purified, requisite fraction eluted, combined, lyophilized and characterized through electron spray mass spectrometry. For tissue staining of brain sections of APPsw+/− mice (test) and WT mice (control), immunohistochemical staining of Aβ and for FM-peptide staining are performed according to published procedures (DeMattos et al., 2002; Holtzman et al., 2000). Rabbit-anti-pan Aβ antibody is used, for example, as a control, and visualized with anti-rabbit antibody conjugated with a fluorescent marker such as Alexa 568 (Molecular Probes). Staining of brain sections from normal and APPsw+/− mice are compared. Target specificity of the peptide is indicated by immunostaining of Aβ in APPsw+/− mice and no staining in WT mice.
Staining experiments with cross sections of brain tissue were also performed. […]

[2] = Acute toxicity in mice after intravenous bolus injection; type: in vivo; conditions: Balb/C male mice, intravenous bolus 14 mg/kg, up to several days post-injection
Method: Although absolute concentration of radiotracers in vivo is normally too low to cause any host toxicity, nevertheless host safety is a key determinant for any successful diagnostic agent. Therefore, using a Re-labeled peptide as a surrogate for a Tc-labeled peptide, acute toxicity in mice (Balb/C; male; 6-8wks old) was determined.

[3] = target: T1, preformed Aβ 1-40 aggregates (Homo sapiens, UniProt P05067); experiment: Competitive binding of ^99mTc-peptide to preformed Aβ 1-40 aggregates with unlabeled competitor; conditions: 1,000-fold molar excess of competitor
T1 construct: preformed Aβ 1-40 aggregates; purchased
Method: Binding assays are performed to determine the binding specificity of the peptide conjugate. For example, a preliminary radioassay of Aβ-binding is performed. For example, a conjugate consisting of radiolabeled ^99mTc-peptide conjugate is incubated with Aβ fibrils in PBS for about 1-3 hours. Bound ^99mTc-peptide conjugate is separated on a Centricon filter unit (with, for example a 100 KDa cut off) and washed several times with PBS buffer. Saturable binding is indicated by calculation of a Kd (affinity constant) as well known in the art to help evaluate the relative amount of specific binding as opposed to non-specific binding. […] Radiolabeled peptide conjugate that is displaceable to background with either 1,000-fold molar excess of unlabeled peptide conjugate or, for example, cold Re-peptide conjugate, supports receptor-like binding behavior of the peptide conjugate to Aβ fibrils. Binding of the lead ^99mTc-peptide to preformed Aβ 1-40 aggregates in presence of increasing equivalents of unlabeled competing peptide. The aggregate-bound ^99mTc-peptide was isolated from free labeled peptide by centrifugation using Centricon (100 kDa cutoff) filters. The concentration of aggregate bound ^99mTc-peptide was calculated on the basis of activity retained on the filters (FIG. 5). […] Each data point represents a mean of triplicate measurements.

RBE4 cell monolayers [4] = tested on: RBE4 cell monolayers
[5] = target: T2, Aβ 1-40 aggregates (Aβ fibrils) (Homo sapiens, UniProt P05067); experiment: Binding assay of ^99mTc-peptide with Aβ fibrils (Centricon filter separation); conditions: PBS, RT, 90 min, mean of triplicate; read-out: Kd (saturable binding to Aβ fibrils)
T2 construct: preformed Aβ 1-40 aggregates; purchased
Method: Binding assays are performed to determine the binding specificity of the peptide conjugate. For example, a preliminary radioassay of Aβ-binding is performed. For example, a conjugate consisting of radiolabeled ^99mTc-peptide conjugate is incubated with Aβ fibrils in PBS for about 1-3 hours. Bound ^99mTc-peptide conjugate is separated on a Centricon filter unit (with, for example a 100 KDa cut off) and washed several times with PBS buffer. Saturable binding is indicated by calculation of a Kd (affinity constant) as well known in the art to help evaluate the relative amount of specific binding as opposed to non-specific binding. […]
Binding assays of ^99mTc-peptide with Aβ fibrils were performed in PBS. […] The concentration of aggregate-bound ^99mTc-peptide was calculated on the basis of activity retained on the filters. […]
Binding assays to preformed fibrils are performed using procedures as described in the literature (Klunk et al., 2001). […] The amount of activity incorporated in the fibrils is measured through γ-counting using previously published procedures (Zhen et al., 1999). […] The mixture is incubated at room temperature for 1.5 h, and the aggregate-bound ^99mTc-peptide and free radioactivity is separated by filtration through Centricon filtration units using a centrifuge. The aggregate-bound ^99mTc-peptide collected on filters is counted in a γ-counter. […]

RBE4 cell monolayers [6] = experiment: Transwell transendothelial transport across RBE4 cell monolayers (in vitro BBB model); conditions: apical to basolateral and basolateral to apical, up to 120 minutes

Chain of amyloid plaques in brain sections (P05067 672-711 limits assumed): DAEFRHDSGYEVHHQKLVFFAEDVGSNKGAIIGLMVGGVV
T2 sequence (P05067 672-711): as the sequence (P05067 672-711 limits assumed) above
T1 sequence (P05067 672-711): as the sequence (P05067 672-711 limits assumed) above

Aβ-binding peptide coupled with FM: peptide labeled on the C-terminal thiol with fluorescein-5-maleimide (FM) (KKLVFFAKGC(Fluorescein(5-Mal)); not fully specified (residues 7, 8); printed as KKLVFFAεKGC)
staining of Aβ plaques in brain sections of APPsw+/− mice ([1]; APPsw+/− mouse, 17 months old, FM-peptide 2 μM solution): staining of plaques in the cortical region
staining in brain sections of WT mice ([1]; control WT mouse (Bl/6; 13.5 months old)): no staining

Re-peptide: rhenium complex of peptide KKLVFFAεKGC, surrogate for the Tc-labeled peptide (KKLVFFA[εLys]GC; not fully specified (residue 7); printed as KKLVFFAεKGC; also: rhenium complex (peptide-based chelation core))
acute toxicity [2]: nontoxic
displacement of aggregate-bound ^99mTc-peptide by competitor [3]: displaceable to background conditions

^3H-Aβ1-40 peptide: full length tritiated Aβ1-40 peptide (SEQ. ID. NO.: 2)
transwell transport / permeation across RBE4 cells (RBE4 cell monolayers [4]): did not show any transwell transport

^99mTc-peptide: peptide KKLVFFAεKGC (SEQ. ID. NO.: 1) radiolabeled with technetium-99m in its peptide-based chelation core (KKLVFFAKGC; not fully specified; conjugate chemistry not built)
Kd [5]: 352 ± 82 nM

inulin [^14C-inulin]
transwell transport / permeation across RBE4 cells (RBE4 cell monolayers [6]): low transwell transport
